B1: DCAF4 (parent)
chain: PGIDRPGMLCSFRIPGAWSCAWSL
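Note: lentivirally expressed fusions sorted by FACS into six bins by GFP to DsRed ratio, PSI derived from sequencing read proportions per bin multiplied by bin number.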

The data set covers variants of B1. Briefly: protein stability index of a GFP-peptide fusion (GPS, HEK-293T) (PSI 1-6); higher = more stable. The following applies: c terminus: a fixed tail appended.
As to PGIDRPGMLQSFRIPGAWSCAWSL [C10Q], the protein stability index is 1.58. As for PGIDRPGMLHSFRIPGAWSCAWSL [C10H], the protein stability index was found to be 3.98. For PGIDRPGMLPSFRIPGAWSCAWSL [C10P], the protein stability index worked out at 2.2.

On to PGIDRPGMLMSFRIPGAWSCAWSL [C10M], for which the protein stability index worked out at 3.1.

Consider PGIDRPGMLWSFRIPGAWSCAWSL [C10W], for which the protein stability index came to 3.64.

In the case of PGIDRPGMLGSFRIPGAWSCAWSL [C10G], the protein stability index was determined as 2.12. PGIDRPGMLNSFRIPGAWSCAWSL [C10N]: the protein stability index was 2.65. The result for PGIDRPGMLASFRIPGAWSCAWSL [C10A] reads 1.68; that for PGIDRPGMLISFRIPGAWSCAWSL [C10I], 3.54.

With PGIDRPGMLYSFRIPGAWSCAWSL [C10Y], the protein stability index worked out at 3.23. In the case of PGIDRPGMLSSFRIPGAWSCAWSL [C10S], the protein stability index worked out at 2.9. Take PGIDRPGMLKSFRIPGAWSCAWSL [C10K]: the protein stability index was 2.77. The figure for PGIDRPGMLFSFRIPGAWSCAWSL [C10F] is 3.57. On to PGIDRPGMLDSFRIPGAWSCAWSL [C10D], for which the protein stability index amounted to 2.17. PGIDRPGMLESFRIPGAWSCAWSL [C10E]: the protein stability index is 2.82. Turning to PGKDRPGMLCSFRIPGAWSCAWSL [I3K], the protein stability index worked out at 2.3. On to PGQDRPGMLCSFRIPGAWSCAWSL [I3Q], for which the protein stability index was found to be 3.25.

On to PGHDRPGMLCSFRIPGAWSCAWSL [I3H], for which the protein stability index amounted to 2.39. On to PGFDRPGMLCSFRIPGAWSCAWSL [I3F], for which the protein stability index stood at 2.26. As to PGNDRPGMLCSFRIPGAWSCAWSL [I3N], the protein stability index amounted to 4.44. For PGVDRPGMLCSFRIPGAWSCAWSL [I3V], the protein stability index is 2.56. On to PGPDRPGMLCSFRIPGAWSCAWSL [I3P], for which the protein stability index was 2.33. The result for PGTDRPGMLCSFRIPGAWSCAWSL [I3T] reads 2.93; that for PGEDRPGMLCSFRIPGAWSCAWSL [I3E], 4.15.

For the variant PGSDRPGMLCSFRIPGAWSCAWSL [I3S], the protein stability index stood at 2.97. The result for PGMDRPGMLCSFRIPGAWSCAWSL [I3M] reads 2.5. For PGLDRPGMLCSFRIPGAWSCAWSL [I3L], the protein stability index was determined as 3.31. For the variant PGWDRPGMLCSFRIPGAWSCAWSL [I3W], the protein stability index came to 3.75.

As for PGGDRPGMLCSFRIPGAWSCAWSL [I3G], the protein stability index was 1.51.

On to PGADRPGMLCSFRIPGAWSCAWSL [I3A], for which the protein stability index stood at 2.91. Regarding PGDDRPGMLCSFRIPGAWSCAWSL [I3D], the protein stability index amounted to 1.96. In the case of PGIDRPGMSCSFRIPGAWSCAWSL [L9S], the protein stability index is 2.32. The result for PGIDRPGMHCSFRIPGAWSCAWSL [L9H] reads 2.92. PGIDRPGMDCSFRIPGAWSCAWSL [L9D]: the protein stability index came to 3.26. The result for PGIDRPGMNCSFRIPGAWSCAWSL [L9N] reads 2.9. The result for PGIDRPGMTCSFRIPGAWSCAWSL [L9T] reads 1.7; that for PGIDRPGMGCSFRIPGAWSCAWSL [L9G], 1.77. Take PGIDRPGMPCSFRIPGAWSCAWSL [L9P]: the protein stability index is 2.5. With PGIDRPGMRCSFRIPGAWSCAWSL [L9R], the protein stability index came to 3.61.

As to PGIDRPGMQCSFRIPGAWSCAWSL [L9Q], the protein stability index came to 1.76. In the case of PGIDRPGMKCSFRIPGAWSCAWSL [L9K], the protein stability index was determined as 3.08. On to PGIDRPGMVCSFRIPGAWSCAWSL [L9V], for which the protein stability index stood at 2.85. PGIDRPGMFCSFRIPGAWSCAWSL [L9F]: the protein stability index was found to be 2.7. The result for PGIDRPGMWCSFRIPGAWSCAWSL [L9W] reads 2.82; that for PGIDRPGMYCSFRIPGAWSCAWSL [L9Y], 2.31; that for PGIDRPGMECSFRIPGAWSCAWSL [L9E], 2.62. The figure for PGIDRPGMICSFRIPGAWSCAWSL [L9I] is 3.09. As to SGIDRPGMLCSFRIPGAWSCAWSL [P1S], the protein stability index is 3.17. Turning to TGIDRPGMLCSFRIPGAWSCAWSL [P1T], the protein stability index stood at 3.59. The figure for LGIDRPGMLCSFRIPGAWSCAWSL [P1L] is 3.17; for MGIDRPGMLCSFRIPGAWSCAWSL [P1M] it is 3.39.

As for YGIDRPGMLCSFRIPGAWSCAWSL [P1Y], the protein stability index is 3.48. Regarding NGIDRPGMLCSFRIPGAWSCAWSL [P1N], the protein stability index was found to be 3.47. Turning to QGIDRPGMLCSFRIPGAWSCAWSL [P1Q], the protein stability index was 3.03.

As for RGIDRPGMLCSFRIPGAWSCAWSL [P1R], the protein stability index stood at 2.46.

Take PGIDRMGMLCSFRIPGAWSCAWSL [P6M]: the protein stability index came out at 4.05. PGIDRRGMLCSFRIPGAWSCAWSL [P6R]: the protein stability index amounted to 3.89. On to PGIDRHGMLCSFRIPGAWSCAWSL [P6H], for which the protein stability index is 2.66. PGIDRNGMLCSFRIPGAWSCAWSL [P6N]: the protein stability index was determined as 2.76. As for PGIDREGMLCSFRIPGAWSCAWSL [P6E], the protein stability index turned out to be 1.44. As to PGIDRSGMLCSFRIPGAWSCAWSL [P6S], the protein stability index was 2.83.

As to PGIDRKGMLCSFRIPGAWSCAWSL [P6K], the protein stability index came out at 2.83. The figure for PGIDRCGMLCSFRIPGAWSCAWSL [P6C] is 2.65; for PGIDRVGMLCSFRIPGAWSCAWSL [P6V] it is 2.93. The result for PGIDRGGMLCSFRIPGAWSCAWSL [P6G] reads 3.28. Turning to PGIDRYGMLCSFRIPGAWSCAWSL [P6Y], the protein stability index was determined as 3.44. PGIDRQGMLCSFRIPGAWSCAWSL [P6Q]: the protein stability index amounted to 3.62.

On to PGIDRTGMLCSFRIPGAWSCAWSL [P6T], for which the protein stability index was 2.65. Turning to PGIDRFGMLCSFRIPGAWSCAWSL [P6F], the protein stability index came to 3.41. The result for PGIDRAGMLCSFRIPGAWSCAWSL [P6A] reads 3.48; that for PGIDRPGILCSFRIPGAWSCAWSL [M8I], 3; that for PGIDRPGHLCSFRIPGAWSCAWSL [M8H], 2.83. With PGIDRPGALCSFRIPGAWSCAWSL [M8A], the protein stability index came to 2.31.

As to PGIDRPGGLCSFRIPGAWSCAWSL [M8G], the protein stability index worked out at 3.31.

Consider PGIDRPGELCSFRIPGAWSCAWSL [M8E], for which the protein stability index is 2.42.

As to PGIDRPGYLCSFRIPGAWSCAWSL [M8Y], the protein stability index was 1.56. With PGIDRPGSLCSFRIPGAWSCAWSL [M8S], the protein stability index amounted to 3.62. Turning to PGIDRPGRLCSFRIPGAWSCAWSL [M8R], the protein stability index is 1.99.

For PGIDRPGNLCSFRIPGAWSCAWSL [M8N], the protein stability index was 2.11. As for PGIDRPGLLCSFRIPGAWSCAWSL [M8L], the protein stability index was 3.01.

Turning to PGIDRPGTLCSFRIPGAWSCAWSL [M8T], the protein stability index is 3.54. The result for PGIDRPGCLCSFRIPGAWSCAWSL [M8C] reads 2.66. The figure for PGIDRPGKLCSFRIPGAWSCAWSL [M8K] is 2.34; for PGIFRPGMLCSFRIPGAWSCAWSL [D4F] it is 2.74. In the case of PGIYRPGMLCSFRIPGAWSCAWSL [D4Y], the protein stability index was determined as 2.27.

With PGIMRPGMLCSFRIPGAWSCAWSL [D4M], the protein stability index came out at 1.91. The result for PGIWRPGMLCSFRIPGAWSCAWSL [D4W] reads 2.65; that for PGIPRPGMLCSFRIPGAWSCAWSL [D4P], 2.56. Regarding PGITRPGMLCSFRIPGAWSCAWSL [D4T], the protein stability index was determined as 2.56. PGIQRPGMLCSFRIPGAWSCAWSL [D4Q]: the protein stability index turned out to be 2.42. Turning to PGIIRPGMLCSFRIPGAWSCAWSL [D4I], the protein stability index came to 3.29. The figure for PGIERPGMLCSFRIPGAWSCAWSL [D4E] is 2.38. For the variant PGINRPGMLCSFRIPGAWSCAWSL [D4N], the protein stability index was found to be 2.05. The result for PGICRPGMLCSFRIPGAWSCAWSL [D4C] reads 2.61.
